Patent publication US20260167699A1 (Chugai, published 2026)

Legend:
Assay in all cases: SPR (Biacore); binding relative to GpH7-A5/GpH7-B3/GpL16-k0 x100;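 further: antibodies captured on a chip surface, soluble FcγR flowed over in HBS-EP+ running buffer at 25 °C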
[1] = molecular target: T1, FcγRIIa(H) extracellular domain, C-terminal His tag (human, UniProt P12318 34-217)
T1 construct: extracellular domain; Allotype H131; also called 2aH
T1 sequence: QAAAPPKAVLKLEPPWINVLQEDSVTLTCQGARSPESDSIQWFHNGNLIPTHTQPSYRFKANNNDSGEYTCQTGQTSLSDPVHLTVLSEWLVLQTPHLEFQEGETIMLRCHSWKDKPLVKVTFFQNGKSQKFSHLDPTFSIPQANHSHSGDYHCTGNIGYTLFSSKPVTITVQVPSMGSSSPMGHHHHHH
Method: (§1) The antibody of interest was analyzed for its interaction with FcγR using a BiaCore™ T100, BiaCore™ A100, or BiaCore™ 4000 surface plasmon resonance system (GE Healthcare Japan Corp.). The running buffer used was HBS-EP+ (GE Healthcare Japan Corp.). The assay temperature was set to 25° C. The sensor chips used were: a chip prepared by immobilizing antigenic peptides onto Series S Sensor Chip CM5 (GE Healthcare Japan Corp.) by the amine coupling method; a chip prepared by immobilizing antigenic peptides biotinylated in advance onto Series S Sensor Chip SA (certified) (GE Healthcare Japan Corp.) through their interaction; a chip prepared by immobilizing protein L (ACTIGEN, BioVision, Inc.) onto Series S Sensor Chip CM5 (GE Healthcare Japan Corp.); and a chip prepared by immobilizing protein A/G (Thermo Fisher Scientific K.K.) onto Series S Sensor Chip CM5 (GE Healthcare Japan Corp.). The antibody of interest was captured onto any of these chips and allowed to interact with FcγR diluted with a running buffer. The antibody captured on the chip was washed off through the reaction of 10 mM glycine-HCl (pH 1.5) to regenerate the chip, which was repetitively used.

[2] = molecular target: T2, FcγRIa extracellular domain, C-terminal His tag (human, UniProt P12314 16-292)
T2 construct: extracellular domain; also called 1a
Method: as §1

[3] = molecular target: T3, FcγRIIb extracellular domain, C-terminal His tag (human, UniProt P31994 43-217)
T3 construct: extracellular domain; also called 2b
T3 sequence: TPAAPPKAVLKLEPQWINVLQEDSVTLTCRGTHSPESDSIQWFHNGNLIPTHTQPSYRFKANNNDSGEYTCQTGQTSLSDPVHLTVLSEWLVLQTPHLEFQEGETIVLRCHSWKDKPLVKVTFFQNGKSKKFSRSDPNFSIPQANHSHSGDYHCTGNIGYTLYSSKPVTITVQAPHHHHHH
Method: as §1

[4] = molecular target: T4, FcγRIIIa extracellular domain, C-terminal His tag (human, UniProt P08637 17-208)
T4 construct: extracellular domain; also called 3a
Method: as §1

[5] = molecular target: T5, FcγRIIa(R) extracellular domain, C-terminal His tag (human, UniProt P12318 34-217)
T5 construct: extracellular domain; Allotype R131; also called 2aR
T5 sequence: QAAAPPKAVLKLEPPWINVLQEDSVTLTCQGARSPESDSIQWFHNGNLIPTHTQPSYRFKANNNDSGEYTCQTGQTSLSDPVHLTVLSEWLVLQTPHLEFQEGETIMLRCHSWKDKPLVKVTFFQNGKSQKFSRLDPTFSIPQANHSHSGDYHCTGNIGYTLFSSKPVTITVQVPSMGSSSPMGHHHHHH
Method: as §1

T2 sequence (P12314 other isoform, or with tags, fused parts or gaps): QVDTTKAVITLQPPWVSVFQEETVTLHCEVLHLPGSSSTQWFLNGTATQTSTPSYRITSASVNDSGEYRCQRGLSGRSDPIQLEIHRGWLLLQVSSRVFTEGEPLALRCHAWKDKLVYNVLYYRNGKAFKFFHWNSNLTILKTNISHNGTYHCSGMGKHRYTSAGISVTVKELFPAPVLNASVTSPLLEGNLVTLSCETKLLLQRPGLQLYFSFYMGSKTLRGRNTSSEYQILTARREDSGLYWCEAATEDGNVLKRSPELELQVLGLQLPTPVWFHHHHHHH
T4 sequence (P08637 other isoform, or with tags, fused parts or gaps): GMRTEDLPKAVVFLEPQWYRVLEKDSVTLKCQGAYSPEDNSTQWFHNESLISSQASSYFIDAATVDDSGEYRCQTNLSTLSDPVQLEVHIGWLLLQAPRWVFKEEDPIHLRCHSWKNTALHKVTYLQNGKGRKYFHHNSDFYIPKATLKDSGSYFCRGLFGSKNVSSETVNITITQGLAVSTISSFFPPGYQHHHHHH

B1: GpH7-A5/GpH7-B3 variant P331_13S/GpL16-k0 (antibody, human IgG1, kappa)
heavy 1: not shown
heavy 2: not shown
light: DIVMTQSPLSLPVTPGEPASISCQASESLVHSNRNTYLHWYLQKPGQSPQLLIYKVSNRFSGVPDRFSGSGSGTDFTLKISRVEAEDVGVYYCSQNTHVPPTFGQGTKVEIERTVAAPSVFIFPPSDEQLKSGTASVVCLLNNFYPREAKVQWKVDNALQSGNSQESVTEQDSKDSTYSLSSTLTLSKADYEKHKVYACEVTHQGLSSPVTKSFNRGEC
notes: He Ab: anti-glypican 3 IgG1 heterodimer, only the GpH7-B3 chain mutated; position in EU numbering; also called He Ab
- He/Con 2aH [1]: 94%
- He/Con 1a [2]: 108%
- He/Con 2b [3]: 107%
- He/Con 3a [4]: 80.9%
- He/Con 2aR [5]: 104%

B2: GpH7-A5/GpH7-B3 variant P331_18N/GpL16-k0 (antibody, human IgG1, kappa)
heavy 1: not shown
heavy 2: not shown
light: DIVMTQSPLSLPVTPGEPASISCQASESLVHSNRNTYLHWYLQKPGQSPQLLIYKVSNRFSGVPDRFSGSGSGTDFTLKISRVEAEDVGVYYCSQNTHVPPTFGQGTKVEIERTVAAPSVFIFPPSDEQLKSGTASVVCLLNNFYPREAKVQWKVDNALQSGNSQESVTEQDSKDSTYSLSSTLTLSKADYEKHKVYACEVTHQGLSSPVTKSFNRGEC
notes: as for B1
- He/Con 2aH [1]: 87.2%
- He/Con 1a [2]: 106%
- He/Con 2b [3]: 110%
- He/Con 3a [4]: 67.1%
- He/Con 2aR [5]: 104%

B3: GpH7-A5/GpH7-B3 variant S324_02A/GpL16-k0 (antibody, human IgG1, kappa)
heavy 1: not shown
heavy 2: not shown
light: DIVMTQSPLSLPVTPGEPASISCQASESLVHSNRNTYLHWYLQKPGQSPQLLIYKVSNRFSGVPDRFSGSGSGTDFTLKISRVEAEDVGVYYCSQNTHVPPTFGQGTKVEIERTVAAPSVFIFPPSDEQLKSGTASVVCLLNNFYPREAKVQWKVDNALQSGNSQESVTEQDSKDSTYSLSSTLTLSKADYEKHKVYACEVTHQGLSSPVTKSFNRGEC
notes: as for B1
- He/Con 2aH [1]: 114%
- He/Con 1a [2]: 96.9%
- He/Con 2b [3]: 102%
- He/Con 3a [4]: 113%
- He/Con 2aR [5]: 99.9%

B4: GpH7-A5/GpH7-B3 variant S324_16H/GpL16-k0 (antibody, human IgG1, kappa)
heavy 1: not shown
heavy 2: not shown
light: DIVMTQSPLSLPVTPGEPASISCQASESLVHSNRNTYLHWYLQKPGQSPQLLIYKVSNRFSGVPDRFSGSGSGTDFTLKISRVEAEDVGVYYCSQNTHVPPTFGQGTKVEIERTVAAPSVFIFPPSDEQLKSGTASVVCLLNNFYPREAKVQWKVDNALQSGNSQESVTEQDSKDSTYSLSSTLTLSKADYEKHKVYACEVTHQGLSSPVTKSFNRGEC
notes: as for B1
- He/Con 2aH [1]: 113%
- He/Con 1a [2]: 106%
- He/Con 2b [3]: 109%
- He/Con 3a [4]: 113%
- He/Con 2aR [5]: 105%

B5: GpH7-A5/GpH7-B3 variant P331_20W/GpL16-k0 (antibody, human IgG1, kappa)
heavy 1: not shown
heavy 2: not shown
light: DIVMTQSPLSLPVTPGEPASISCQASESLVHSNRNTYLHWYLQKPGQSPQLLIYKVSNRFSGVPDRFSGSGSGTDFTLKISRVEAEDVGVYYCSQNTHVPPTFGQGTKVEIERTVAAPSVFIFPPSDEQLKSGTASVVCLLNNFYPREAKVQWKVDNALQSGNSQESVTEQDSKDSTYSLSSTLTLSKADYEKHKVYACEVTHQGLSSPVTKSFNRGEC
notes: as for B1
- He/Con 2aH [1]: 85.8%
- He/Con 1a [2]: 107%
- He/Con 2b [3]: 123%
- He/Con 3a [4]: 71.9%
- He/Con 2aR [5]: 109%

B6: GpH7-A5/GpH7-B3 variant P331_16H/GpL16-k0 (antibody, human IgG1, kappa)
heavy 1: not shown
heavy 2: not shown
light: DIVMTQSPLSLPVTPGEPASISCQASESLVHSNRNTYLHWYLQKPGQSPQLLIYKVSNRFSGVPDRFSGSGSGTDFTLKISRVEAEDVGVYYCSQNTHVPPTFGQGTKVEIERTVAAPSVFIFPPSDEQLKSGTASVVCLLNNFYPREAKVQWKVDNALQSGNSQESVTEQDSKDSTYSLSSTLTLSKADYEKHKVYACEVTHQGLSSPVTKSFNRGEC
notes: as for B1
- He/Con 2aH [1]: 87.5%
- He/Con 1a [2]: 105%
- He/Con 2b [3]: 128%
- He/Con 3a [4]: 73.4%
- He/Con 2aR [5]: 113%

B7: GpH7-A5/GpH7-B3 variant S324_06M/GpL16-k0 (antibody, human IgG1, kappa)
heavy 1: not shown
heavy 2: not shown
light: DIVMTQSPLSLPVTPGEPASISCQASESLVHSNRNTYLHWYLQKPGQSPQLLIYKVSNRFSGVPDRFSGSGSGTDFTLKISRVEAEDVGVYYCSQNTHVPPTFGQGTKVEIERTVAAPSVFIFPPSDEQLKSGTASVVCLLNNFYPREAKVQWKVDNALQSGNSQESVTEQDSKDSTYSLSSTLTLSKADYEKHKVYACEVTHQGLSSPVTKSFNRGEC
notes: as for B1
- He/Con 2aH [1]: 122%
- He/Con 1a [2]: 104%
- He/Con 2b [3]: 126%
- He/Con 3a [4]: 124%
- He/Con 2aR [5]: 118%

B8: GpH7-A5/GpH7-B3 variant P331_19Q/GpL16-k0 (antibody, human IgG1, kappa)
heavy 1: not shown
heavy 2: not shown
light: DIVMTQSPLSLPVTPGEPASISCQASESLVHSNRNTYLHWYLQKPGQSPQLLIYKVSNRFSGVPDRFSGSGSGTDFTLKISRVEAEDVGVYYCSQNTHVPPTFGQGTKVEIERTVAAPSVFIFPPSDEQLKSGTASVVCLLNNFYPREAKVQWKVDNALQSGNSQESVTEQDSKDSTYSLSSTLTLSKADYEKHKVYACEVTHQGLSSPVTKSFNRGEC
notes: as for B1
- He/Con 2aH [1]: 91.6%
- He/Con 1a [2]: 108%
- He/Con 2b [3]: 94%
- He/Con 3a [4]: 73.9%
- He/Con 2aR [5]: 96.1%

B9: GpH7-A5/GpH7-B3 variant P331_14T/GpL16-k0 (antibody, human IgG1, kappa)
heavy 1: not shown
heavy 2: not shown
light: DIVMTQSPLSLPVTPGEPASISCQASESLVHSNRNTYLHWYLQKPGQSPQLLIYKVSNRFSGVPDRFSGSGSGTDFTLKISRVEAEDVGVYYCSQNTHVPPTFGQGTKVEIERTVAAPSVFIFPPSDEQLKSGTASVVCLLNNFYPREAKVQWKVDNALQSGNSQESVTEQDSKDSTYSLSSTLTLSKADYEKHKVYACEVTHQGLSSPVTKSFNRGEC
notes: as for B1
- He/Con 2aH [1]: 86.5%
- He/Con 1a [2]: 102%
- He/Con 2b [3]: 111%
- He/Con 3a [4]: 67.8%
- He/Con 2aR [5]: 104%

B10: GpH7-A5/GpH7-B3 variant P331_15Y/GpL16-k0 (antibody, human IgG1, kappa)
heavy 1: not shown
heavy 2: not shown
light: DIVMTQSPLSLPVTPGEPASISCQASESLVHSNRNTYLHWYLQKPGQSPQLLIYKVSNRFSGVPDRFSGSGSGTDFTLKISRVEAEDVGVYYCSQNTHVPPTFGQGTKVEIERTVAAPSVFIFPPSDEQLKSGTASVVCLLNNFYPREAKVQWKVDNALQSGNSQESVTEQDSKDSTYSLSSTLTLSKADYEKHKVYACEVTHQGLSSPVTKSFNRGEC
notes: He Ab: anti-glypican 3 IgG1 heterodimer, only the GpH7-B3 chain mutated; position in EU numbering; also called P331_I5Y; He Ab
- He/Con 2aH [1]: 89%
- He/Con 1a [2]: 109%
- He/Con 2b [3]: 127%
- He/Con 3a [4]: 74.9%
- He/Con 2aR [5]: 112%

B11: GpH7-A5/GpH7-B3 variant S324_01G/GpL16-k0 (antibody, human IgG1, kappa)
heavy 1: not shown
heavy 2: not shown
light: DIVMTQSPLSLPVTPGEPASISCQASESLVHSNRNTYLHWYLQKPGQSPQLLIYKVSNRFSGVPDRFSGSGSGTDFTLKISRVEAEDVGVYYCSQNTHVPPTFGQGTKVEIERTVAAPSVFIFPPSDEQLKSGTASVVCLLNNFYPREAKVQWKVDNALQSGNSQESVTEQDSKDSTYSLSSTLTLSKADYEKHKVYACEVTHQGLSSPVTKSFNRGEC
notes: as for B1
- He/Con 2aH [1]: 110%
- He/Con 1a [2]: 93.2%
- He/Con 2b [3]: 106%
- He/Con 3a [4]: 114%
- He/Con 2aR [5]: 94.4%
